Test results reported in paper PMC10470539, “Characterization of a novel aromatic substrate-processing microcompartment in Actinobacteria” (mBio, 2023).

What was measured:
[1] = target: T1, ARO AldDh (2-aminomuconic-6-semialdehyde dehydrogenase homolog) (Micromonospora rosaria, UniProt A0A136PUC7); experiment: coupled assay, absorption spectra, product 2-aminomuconate at […] nm; format: biochemical; details: 2-AMS generated in situ from 0.5 µM 2-AP by ARO dioxygenase; 20 µM NAD+, 100 mM potassium phosphate pH 7.5
T1 construct: gene AWW66_10300; E. coli BL21(DE3), codon-optimized, untagged (pLD69); ammonium sulfate and HIC enriched; primers imply N-term MTGLWSPTL, C-term VDLS
T1 sequence (A0A136PUC7 1-502): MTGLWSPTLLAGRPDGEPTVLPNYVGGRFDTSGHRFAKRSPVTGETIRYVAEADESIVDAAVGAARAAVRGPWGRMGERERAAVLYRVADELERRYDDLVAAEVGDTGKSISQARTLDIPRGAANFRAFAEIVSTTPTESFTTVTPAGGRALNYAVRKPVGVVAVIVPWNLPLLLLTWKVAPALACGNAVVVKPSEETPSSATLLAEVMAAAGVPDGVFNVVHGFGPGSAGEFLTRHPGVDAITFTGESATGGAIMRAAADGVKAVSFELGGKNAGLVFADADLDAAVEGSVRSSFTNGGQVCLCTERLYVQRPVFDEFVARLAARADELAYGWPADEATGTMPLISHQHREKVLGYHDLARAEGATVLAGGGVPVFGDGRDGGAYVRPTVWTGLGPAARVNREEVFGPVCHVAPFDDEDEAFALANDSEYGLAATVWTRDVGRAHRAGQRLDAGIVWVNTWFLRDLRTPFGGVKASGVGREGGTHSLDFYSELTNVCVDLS

[2] = target: ARO AldDh (ARO 2-aminomuconic-6-semialdehyde dehydrogenase homolog) from Micromonospora rosaria (Micromonospora rosaria); experiment: SEC; purified ARO AldDh on analytical Superdex 200 10/300 GL in Buffer E (10 mM Tris-HCl pH 8.0, 0.5 M NaCl, 0.2 mM NAD+, 1 mM DTT, 5% glycerol); oligomer of the enzyme with itself
[3] = target: ARO dioxygenase beta subunit (2-aminophenol-1,6-dioxygenase beta subunit) from Micromonospora rosaria, His-tagged (Micromonospora rosaria); experiment: crystal structure; ARO dioxygenase, sitting drop vapor diffusion at room temperature; 0.1 M Tris pH 8.0, 0.5 M ammonium, 28% PEG 8000; 1.75 Å, P1 cell
purified protein [4] = substrate: Nc1ccc(Cl)cc1O; experiment: purified protein; format: biochemical, Micromonospora rosaria; details: 10 mM sodium phosphate pH 8.0, room temperature, 27 µg enzyme in 1 mL
purified protein [5] = substrate: Nc1ccccc1O; experiment: purified protein; format: biochemical, Micromonospora rosaria; details: 10 mM sodium phosphate pH 8.0, room temperature, 27 µg enzyme in 1 mL
purified protein [6] = substrate: Oc1ccccc1O; experiment: purified protein; format: biochemical, Micromonospora rosaria; details: 10 mM sodium phosphate pH 8.0, room temperature, 27 µg enzyme in 1 mL

`N/C(=C\C=C\C=O)C(=O)O` [2-aminomuconate 6-semialdeyde] was tested, and the “coupled assay, absorption spectra, product 2-aminomuconate at 326 nm” value [1] was “ability to convert 2-aminomuconate 6-semialdeyde (2-AMS) to 2-aminomuconate in vitro”.

“ARO AldDh (ARO 2-aminomuconic-6-semialdehyde dehydrogenase homolog) from Micromonospora rosaria (enzyme)” gave a stoichiometry N [2] of 3.

With “ARO dioxygenase beta subunit (2-aminophenol-1,6-dioxygenase beta subunit) from Micromonospora rosaria, His-tagged (natural protein)” the stoichiometry N [3] was 2.

B1: ARO dioxygenase (2-aminophenol-1,6-dioxygenase; ARO AmnA and AmnB) (Micromonospora rosaria) (protein)
chain: MSRVFRVPLAPTRGGATTAPRTPAPAPAPTRPGIVAGCLSPHPPHLIYGENPPQNEPRSTGGWETLRWAYERLRARIRDVHKPDVLIVHAPHWITMVGHHVNCVPNPRGLSVEPIFPHLFRYRYDFRTDVELGEAIAEEASGLGLVTRTLRDPRVRVDYATIGALHLANPAWDIPVVSLSANNNPYFYSDASLTEMEVLGEATRLAVEATGRRAVLLASNSLSHLHWHEEPELPEDMEREHPYNNHQYRWDMKLLEAIRRGPTAPLRDLIPEHIEATASETKAGSLTWMLAAMGWPKVAGDVLGYGTIIGTGNAIVEWLPEGSHH
notes: E. coli BL21(DE3) co-expression (codon-optimized; pLD54 alpha, pLD59 beta); beta with C-terminal 6xHis via Gly/Ser linker, tag kept; alpha untagged; 140 kDa dimer of heterodimers; modelled alpha D3-H278, beta T30-G322; iron in beta subunit; primers imply alpha N-term MADRTG, beta N-term MSRVFR; with 2-aminophenol 1,6-dioxygenase alpha subunit
For B1, the Km (purified protein [4]) was 29 µM, the Km (purified protein [5]) was 70 µM and the Km (purified protein [6]) was 14 µM.
